Test: label from the status in PepcDB records

| Sequence | protein production |
| --- | --- |
| MQLSSLTAVSPVDGRYAGKTQALRPIFSEYGLIRFRVMVEVRWLQRLAAHPQITEVPAFSAQANAILNTLAEDFSVEHAERVKEIERTTNHDVKAVEYLLKEQAAKLPELENVSEFIHFACTSEDINNLSHALMLREGRDTVMLPLMRQIADAIRELAIRFADVPMLSRTHGQPASPTTLGKELANVVYRLERQITQIAAVPLLGKINGAVGNYNAHLSAYADIDWEANARAFIEDELGLGFNPYTTQIEPHDYIAELFDAVARFNTILIDFDRDIWGYISLGYFKQRTIAGEIGSSTMPHKVNPIDFENSEGNLGIANALFQHLASKLPVSRWQRDLTDSTVLRNLGVGFAHSVIAYEASLKGISKLELNEQRIAADLDACWEVLAEPIQTVMRRYNIENPYEKLKELTRGKGIGPEALQTFIDGLDMPAQAKAELKKLTPANYIGNAAAQAKRI | not failed |
| IDTVAPDMRIHGFLNAQEFTLYLDTSGEALFKRGLRQTQGEAPLRENLAAGILALTGWQPGTPLLDPMCGSGTLLLEAAQIACRIAPGSGRQFAFEQLKLFDARSWKKLKQTATERQHERTFQSIYGSDLYGSALAHTRNNLAAAGLAECVTLKQANVLEISAPAETGILVSNPPYGVRIGDHQMLAEFYPRLGDVLKQRFSGWRAFLLTADPLLAKSIRLTPSRRTPLFNGALECRLLEYRLVAGSMRREKQPSSESSTNQPIT | failed |
| MSSLTSVELNFLVFRYLQESGFTHAAFTLGYEAGINKSNIDGNMVPPGALIKFVQKGLQYMEMEANLSNSEVDIDEDFSFFQPLDLISKDVKELQDMLREKKRKERDMEKERDRSKENDKGVEREHEGDRNRAKEKDRHEKQKEREREREKLEREKEREREKIEREKEREREKMEREIFEREKDRLKLEKEREIEREREREKIEREKSHEKQLGDADREMVIDQTDKEIAGDGSTGAEPMDIVMTPTSQTSHIPNSDVRILEGHTSEVCACAWSPSASLLASGSGDATARIWSIPEGSFKAVHTGRNINALILKHAKGKSNEKSKDVTTLDWNGEGTLLATGSCDGQARIWTLNGELISTLSKHKGPIFSLKWNKKGDYLLTGSVDRTAVVWDVKAEEWKQQFEFHSGPTLDVDWRNNVSFATSSTDSMIYLCKIGETRPAKTFTGHQGEVNCVKWDPTGSLLASCSDDSTAKIWNIKQSTFVHDLREHTKEIYTIRWSPTGPGTNNPNKQLTLASASFDSTVKLWDAELGKMLCSFNGHREPVYSLAFSPNGEYIASGSLDKSIHIWSIKEGKIVKTYTGNGGIFEVCWNKEGNKIAACFADNSVCVLDFRM | failed |
| LEMKGKRMSVTAVMRELEKEENLYRRSGGGITLSGGEPLAQPEFARELLKACKAKGWHTAIETSGFTTKAVIDEVFPYVDLALTDIKAIDPEIHERNTGVNNRVILENLLRISFLTKVVVRIPVIPGVNDNSQEIHNIAEFARLMQNVDTIHLLPYHSFGENKYNLLGRQYPMGDTKSIEESQMAELKAMVESLGFNCHIGG | failed |
| MRYHGGLLLGAFDDDGKIIGMSFGYPGFRNGKLYLYSHMAGVVENKKYSNVGYSLKMKQRDLAASMGYDLIAWTFDPFNPLNAYFNISKLGAITRTYIKNFYGVMNDGINRGMRTDRVVAEWWI | failed |
| MSMNNSKQLVSPAAALLSNTTCQTENRLSVFFSVIFMTVGILSNSLAIAILMKAYQRFRQKSKASFLLLASGLVITDFFGHLINGAIAVFVYASDKEWIRFDQSNVLCSIFGICMVFSGLCPLLLGSVMAIERCIGVTKPIFHSTKITSKHVKMMLSGVCLFAVFIALLPILGHRDYKIQASRTWCFYNTEDIKDWEDRFYLLLFSFLGLLALGVSLLCNAITGITLLRVKFKSQQHRQGRSHHLEMVIQLLAIMCVSCICWSPFLGYRIILNGKEKYKVYEEQSDFLHRLQWPTLE | failed |
| GMKAADFTYVTVHGDNSRMSRLKAQYTMLFFYDPDCSNCRKFEKLFAEIPAFVEMVENGTLRVLAIYPDENREEWATKAVYMPQGWIVGWNKAGDIRTRQLYDIRATPTIYLLDGRKRVILKDTSMEQLIDYLATQAG | not failed |
| MANAVVAIAGSSGLIGSALTAALRAADHTVLRIVRRAPANSEELHWNPESGEFDPHALTDVDAVVNLCGVNIAQRRWSGAFKQSLRDSRITPTEVLSAAVADAGVATLINASAVGYYGNTKDRVVDENDSAGTGFLAQLCVDWETATRPAQQSGARVVLARTGVVLSPAGGMLRRMRPLFSVGLGARLGSGRQYMSWISLEDEVRALQFAIAQPNLSGPVNLTGPAPVTNAEFTTAFGRAVNRPTPLMLPSVAVRAAFGEFADEGLLIGQRAIPSALERAGFQFHHNTIGEALGYATTRPG | failed |
| MAVIADPETAQGFRLAGLEGYGASSAEEAQSLLETLVERGGYALVAVDEALLSDPERAVERLMRGRDLPVLLPIAGLKEAFQGHDVEGYMRELVRKTIGFDIKLLEHHHHHH | failed |
| MKTASYAQSFSRAAKEYDAYAYLQQTVARELASWIEGMECESILDLGCGTGALWRALRFKPRFFTGVDLSMEMLDLHPQDPAIRLIQSDFNHPSLYEHSYDLIAASSSLQWSRDLAQSFDLIAKSAQNVAFAIFTSESLWEIHDYVDSHSPIPSKERIESLLKERFAGEFELKRYPLSFPSRVAMLSYLKGSGISGGRRLGFAQSK | failed |
| KPQEGIGARCRRALKDLPLTNLSRLLQCELAEGKALRWGADSLEPAAVVGLNSLGSLVWAPGQPSRWPVPLLLLGGTLDLITPPLDEQLGVFSALASHPSSRVVVVEGASHFSPIRVGEPMA | failed |
| MRKDETSNTSPDISAAQPASALRYHLRPPRRNDGAAIHQLVSECPPLDLNSLYAYLLLCEHHAHTCVVAESPGGRIDGFVSAYLLPTRPDVLFVWQVAVHSRARGHRLGRAMLGHILERQECRHVRHLETTVGPDNQASRRTFAGLAGERGAHVSEQPFFDRQAFGGADHDDEMLLRIGPFTHPPH | failed |
| MLVAPFASQLPFVEETLHSSYQALQWGKNIFAIAHKTLSARLLNTVFPTEERTQPLSPELQAWLKERYEALLQQDWQDAAAGFYPATLLFDAPWEEFLRFYPLLLLDLPQMWQRARSRQFQEFAHNVRLEDYPQYYRQNFHYQTDGYLSDTSANLYDIQVELLFGGTADAMRRRVIAPIAQQVVAHPPTPPLRILDVACGTGRTLKQLRYAFPGAVLFGLDLSPAYLRKANALLATQTGALPQLIQGNAESLPYVDSYFSAITCVFLFHELPAPVRQNVIHECARVLQPGGIFVICDSIQSLDSPEQRPMMENFANLFHEPFYRNYIEDDLNLRLEKAGLVVKEVQHHFMSKYWVAVKPSLEHHHHHH | failed |
| MSLFKRSVVSEITSHAGVVFSTLVVVWLSVLLVRLLGEAAGGSIGADVVLGLAAFSTITALPTILAVSLFIAVLTTVTRNYRESEMVVWFASGLSLADWLRPVARVAVPIAMLVAALTLVASPWAYRQIGEYRERFEQRSDLSKVTAGQFAESGRGDRVFFAEDPVRPGDELGAVFARSIDPEWLSVLTASNARSETLPNGDRFLVLGEGHRYDLKPGTPEIRLVNFDQYGVRLESKAGEDPMAEARAAAERSSKARSTMQLVQDNTDSSWSQIMWRVAMPLAALNLALLAIPLGAVNPRLGRSGDLLIAGLVGLLYMNMINLSRAWISSGKISFSIGVWAVHAVVALLAAYLLMRRLRVKAPRNAGRGA | failed |
| MISNKRRPKIKIWNKEQMALYLKAIKKDRLYAAFVTDSKSGLRKSELLALRWSDIDFSTGLTKIERGWVRSPKGTLYLSDLKSENSERTLVFSTDLLKVLLEHKSRQDEEKKTAGKNYIDNGLVFCREDGSYINPSTFTRRHYDLTAKAKLPRISVHALRHSISTALLESGKVDLKQIQEMLGHKDISTTGNYYTDVLERMKQKTSELIDNLIQTELEHHHHHH | failed |
| MEYELLIREAEPKDAAELVAFLNRVSLETDFTSLDGDGILLTSEEMEIFLNKQASSDNQITLLAFLNGKIAGIVNITADQRKRVRHIGDLFIVIGKRYWNNGLGSLLLEEAIEWAQASGILRRLQLTVQTRNQAAVHLYQKHGFVIEGSQERGAYIEEGKFIDVYLMGKLIG | not failed |
| MALKELTAKEFESYSGNYDLQSFMQTPEMAKLLKKRGYDITYMGYQIDGKMEIISIVYTIPMTGGLHMEVNSGPAHSNSKYLKHFYKELQNYAKSQGALELLIKPYDTYQEFTGEGKPKGAPNTYLIDDLTSIGYHHDGLHIGYPGGEPDWHYVKNLEGITPQNLLKSFSKKGRPLVKKAMSFGIKIRVLKREELHIFKDITSSTSDRRDYMDKSLDYYQDFYDSFGDKAEFVIATLNFREYDHNLQLNAKKLEEQITVLDNRHQNNTDSAKYHRQRTELVNQLASLDKRRKEVEPFIQKFGNQDVVLAGSLFIYSPKETVYLFSGSYTEFNKFYAPAVLQEYVMQEALKRQSTFYNFLGIQGNFDGSDGVLRFKQNFNGYIVRKMGTFRYYPNPLKYKSIQLLKKILRRT | failed |
| MFQTQFSPINFRETKIIKANYKRFHEIRAKVQTETNDALNENEISAIKKSGFRGHVDISYKSSASFSPLPLQQYFTTMKKIVMRKLRSPVSHCMLVTKCQTTLQIGYIDWMESKSLSNIID | failed |
| MGVLHALREEEGAARARFEEALTHDAGHYRARMNIGNLDLEAGRLPEAEAAYREVLKLAPEYDGAHHNLGVALRRQGKLYESVGSIRKAQRLGVSGARAAAKEDMQEQLRLNPHLRWIRAAIFIGVLLLLGVLLWLNRGRA | failed |
| MPAASQDNDGGPSQSGGPMADPAPLIDTDPARIGEYTLLGRLGQGGQGVVYLGSAPDGARVAVKTLHRDALDLPGLREQLAEEVEMARRVARFCTAQVLAADLDADPPYVVSEYVEGPSLQAVVRERGPLRGASLERLAVGTLTALAAIHQAGIVHRDFKPANVLMAPGGPRVIDFGIARALEGTAILTSRIAGTPAYMAPEQITGGPLGPAVDMFAWGATLVYAANGRGPFGHGSLKAVVQRVINDEPDFGELSGTLREIAERCLNKDAAQRPTAAETLMLVLGIEGPPPTEEPSTDTAIPVTHQTLVAGAIAAADTGEQESAAELYRSYPPAPPPPHSNVAAQPSPTPPPHPQTASGPQPSLPSTGAQHSGYGYATGPHQSGYGYATGPQQGGYAPPPGPHQHAYPTPHSGNAAIPPHGGPSGPYAPAQPWMPSTGGYPQTSQPYSGQQYQQQAEGTSTAFVLGVVSIAVIAGVLLFILLFLLIGSLG | failed |
| MSLSALESSSRFEVRYFFERALECYKPFSDTVLLLPCTARKPYLTSRTHRALRSKVKVNVNEIIISSPLVVPREFELLYPAVNYDTPVTGHWSEEEVSFVAGWLKRFIEKGGFRKVVAHVTGGYRKVVERVEDEVEAEVVYTAEKDVLSDESIERLKQEIESKGKVDLYRRILEHMLSYQFGITWSGKVAGRYPELELLEGKKRLARVDRIYGMLDIYEKIAAYLLEKNIYTVEIGDFEVKGTIFAGGVLRADEKIRPNDVVVFHNSRIFGVGLAAMSGKEMAGSEKGIAINVKRKFSEGHHHHHH | not failed |
| MQENKKIDENIDDFLKIVVDLNHIQIEVRDEVQAILLLSSLPSRYDGLVETMKYSNSREKLRLNDVMVAARDKEREMSQNNRLIAEGHYARRRPVGKNNNQGNKGKNRSWSKSADGKRVCWICGKEKHFNEQCYKWLERNKPK | failed |

From a protein production outcome set (Wang et al. 2014)
